Substitutions are numbered along the chain they refer to.
B1: I23RB91 (antibody, mouse IgG2a, kappa, V domains shown)
VH: EFQLQQFGPELLKPGASVKISCKASGYTFTDYIMHWVKQSHGKSLEWIGGISPNYGGTGYNGKFKDKATLTVDKSSSTAYMELRSLTSEDSAVYYCARFNNYYYFDYWGQGTTLTVSS
VL: DIKMTQSPSSMYASLGERVTITCKASQDINSYLSWCQQKPGKSPKALIYRANSLVDGVPSRFSGSGSGQDYSLTISSLEYEDMGIYYCLQYDEFPYTFGGGTKLEMKR
notes: immunization; mouse IgG2a/kappa
B2: I23RB177 (antibody, mouse IgG2a, kappa, V domains shown)
VH: EVQLQQSGPELLKPGASVKISCKASGYTITDYTMHWVKQSHGKSLEWIGGINPNYGGTSYNEKFKDKATLTVDKSSSTAYMELRSLTSEDSAVFYCVRGNIYFDYWGQGTTLTVSS
VL: B1 VL with D1N, I2T, K3Q, C36F, S53R, L89Q, Y96R, G100A, M106L
notes: as for B1
B3: I23RB260 (antibody, mouse IgG2a, kappa, V domains shown)
VH: QVQLVQSGAEVKKPGSSVKVSCKASGGTFSSYGISWVRQAPGQGLEWMGGIIPIFGTANYAQKFQGRVTITADESTSTAYMELSSLRSEDTAVYYCARDFGWSLWFDYWGQGTLVTVSS
VL: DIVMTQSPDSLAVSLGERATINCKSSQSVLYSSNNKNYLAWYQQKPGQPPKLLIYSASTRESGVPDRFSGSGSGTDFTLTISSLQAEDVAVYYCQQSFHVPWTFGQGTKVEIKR
notes: phage display; human V, mouse IgG2a/kappa
B4: I23RB69 (antibody, mouse IgG2a, kappa, V domains shown)
VH: EVQLQQSGAELVKPGASVKISCKASGYSFTGYNMNWVKQSHGKSLEWIGNINPFYDKTSYNQKFKGKATLTVDKASSTAYMQLNSLTSEDSAVYYCARQLGLKGFAYWGQGTLVTVSA
VL: DIVMTQSHKFMSTSVGDRVSITCKASQDVSTAVAWYQQKPGQSPKLLIYSASYRYTGVPDRFTGSGSGTDFTFTISSVQAEDLAVYYCQQHYSTPWTFGGGTKLEMKR
notes: as for B1
B5: I23RB161 (antibody, mouse IgG2a, kappa, V domains shown)
VH: EFQLQQSGPELVKPGASVKISCKASVYAFSSSWMNWVKQRPGKGLEWIGRIYPGDGDTNYNGKFKGKATLTADKSSSTAYMQLSSLTSEDSAVYFCARRYDFGSAMDYWGQGTSVTVSS
VL: DIVMTQSPAILSASPGEKVTMTCRASSSVSYMHWYQQKPGSSPKPWIYATSDLASGAPARFSGSGSGTSYSLTISRVEAEDAATYYCQQWSSNPPTFGGGTKLEIKR
notes: as for B1
B6: I23RB321 (antibody, mouse IgG2a, kappa, V domains shown)
VH: QVQLVQSGAEVKKPGSSVKVSCKASGGTFSSYGISWVRQAPGQGLEWMGWISAIFGTTNYAQKFQGRVTITADESTSTAYMELSSLRSEDTAVYYCARHWLQSFDYWGQGTLVTVSS
VL: DIQMTQSPSSLSASVGDRVTITCRASQSIGGDLNWYQQKPGKAPKLLIYAASSLQSGVPSRFSGSGSGTDFTLTISSLQPEDFATYYCQQSYSTPLTFGQGTKVEIKR
notes: as for B3
B7: I23RB264 (antibody, mouse IgG2a, kappa, V domains shown)
VH: B6 VH with G33A, W50G, S52I, A53P, T58A, H99R, W100S, L101S, Q102P, S103G
VL: B6 VL with G30D, G31N, A50N, S91P, T94I
notes: as for B3
B8: I23RB319 (antibody, mouse IgG2a, kappa, V domains shown)
VH: B6 VH with V93L, H99P, W100L, L101K, S103A
VL: B6 VL with G30T, G31D
notes: as for B3
B9: I23RB313 (antibody, mouse IgG2a, kappa, V domains shown)
VH: B6 VH with H99G, W100T, L101V, Q102P, S103G
VL: B6 VL with G31E
notes: as for B3
B10: I23RB261 (antibody, mouse IgG2a, kappa, V domains shown)
VH: B6 VH with G33A, A53P, I54Y, T58A, H99M, W100Y, L101R, S103G
VL: B6 VL with G30N, G31D
notes: as for B3
B11: I23RB180 (antibody, mouse IgG2a, kappa, V domains shown)
VH: QVTLKESGPGILQPSQTLSLTCSFSGFSLSTYGMGVGWIRQPSGKGLEWLANIWWNDSKYHNAALKSRLTISKDTSKNQVFLKIASVDTADTATYYCGRIDGYYECVDVWGTGTSVTVSS
VL: DIQMTQSPASLSASVGETVTITCRASVNIHNYLAWYQQKQGKSPQLLVYNAKTLADGVPSRFSGSGSGTQYSLKINSLQPEDFGSYYCQHFWTTPYMYTFGAGTKLELKR
notes: as for B1
B12: I23RB35 (antibody, mouse IgG2a, kappa, V domains shown)
VH: DVQLQESGPGLVKPSQSLSLTCSVTGYSITSGHNWNWIRQFPGNKLEWLGYISYDGSNNYDPSLKNRISITRDTSKNQFFLKLNSVTTEDTATYYCARGGGYFGNSYRVFASWGQGTTVTVSS
VL: DIVLTQSPASLAVSLGQRATISCRASESVDSYGNSFMHWYQQKPGQPPKLLIYRASNLESEIPARFSGRGSGTDFTLTINPVEADDVATYYCQQSNADPYTFGGGTKLEIKR
notes: as for B1
B13: I23RB317 (antibody, mouse IgG2a, kappa, V domains shown)
VH: QVQLVQSGAEVKKPGSSVKVSCKASGGTFSSYAISWVRQAPGQGLEWMGGIIPIFGTANYAQKFQGRVTITADESTSTAYMELSSLRSEDTAVYYCARGNGVNYHSELDYWGQGTLVTVSS
VL: EIVLTQSPATLSLSPGERATLSCRASQSVDSFLAWYQQKPGQAPRLLIYTASNRATGIPARFSGSGSGTDFTLTISSLEPEDFAVYYCQQGNSAPFTFGQGTKVEIKR
notes: as for B3
B14: I23RB267 (antibody, mouse IgG2a, kappa, V domains shown)
VH: EVQLVQSGAEVKKPGESLKISCKGSGYSFTSYWIGWVRQMPGKGLEWMGIIYPGDSDTRYSPSFQGQVTISADKSISTAYLQWSSLKASDTAMYYCARVWYSSWDLDYWGQGTLVTVSS
VL: not shown
notes: as for B3
B15: I23RB67 (antibody, mouse IgG2a, kappa, V domains shown)
VH: EVQLQQSGAELVKPGASVKLSCKASGYTFTSYWINWVKQRPGQGLEWIGNIYPGSSSTNYNEKFKSKATLTVDTSSSTAYMQLSSLTSDDSAVYYCARSAYGNRLAMDYWGQGTTLTVSS
VL: B4 VL with I2V, S52F, W96Y, M106L
notes: as for B1
B16: I23RB87 (antibody, mouse IgG2a, kappa, V domains shown)
VH: EFQLQQSGPELVKPGTSVKMSCKASGYTFTNYVMHWVKQKPGQGLEWIGYINPYDASPKYNEKFKGKAILTSDKSSSTAYMELSSLTSEDSAVYYCTRDAKLDYFDYWGQGTTLTVSS
VL: DIVMTQTTSSLSASLGDRVTISCRASQDISNYLNWYQQKPDGTVKLLIYYTSRLHSGVPSRFSGSGSGTDFSLTISNLEQEDIATYFCQQGITLPWTFGAGTKLELKR
notes: as for B1
B17: I23RB54 (antibody, mouse IgG2a, kappa, V domains shown)
VH: EVQLQQSGGGLVKPGGSLKLSCAASGFTFSSYAMSWVRQTPEKRLEWVAGISSGGSYIYYPDNVKGRFTISRDNARNTLYLQMSSLRSEDTAMYYCARKKSDYGAMDYWGQGTTLTVSS
VL: DIQMTQSPKFLLVSAGDRVTITCKASQSVSNDVAWYQQKPGQSPRLLIYYASNRYTGVPDRFTGSGYGTDFTFTISTVQAEDLAVYFCQQDYSSLPTFGAGTKLEMKR
notes: as for B1
B18: I23RB78 (antibody, mouse IgG2a, kappa, V domains shown)
VH: EFQLQQSGGGLVKPGGSLKLSCAASGFTFSNYTMSWVRQTPEKRLKWVACISSGGGNTYYPDSVKGRFTISRDNARNTLYLQMSSLRSEDTAMYYCARRNYRRAMDYWGQGTSVTVSS
VL: B12 VL with L4M, N34I, E61G, R69S, G72R, A97E, Y100W, G104A, K107G
notes: as for B1
B19: I23RB102 (antibody, mouse IgG2a, kappa, V domains shown)
VH: QVQLQQPGAELVKPGASVKVSCKASGYTFTKYWINWMNQRPGQGLEWIGNIYPGSISTNYNEKFKSKVTLTVDISSSTAYMQLSSLTSDDSAVYYCARGDFYALDYWGQGTTLTVSS
VL: DIQMTQSPASLSVSVGETVTITCRASENIYSHITWYQLKQGKSPQLLVYASTNLADDVPSRFSGSGSGTQYSLKINSLLSEDFGTYYCQHFWGTPWTFGGGTKLEMKR
notes: as for B1

Target: T1, human IL-23R expressed on the cell surface of stably transfected iLite and HEK cell lines (human, UniProt Q5VWK5 24-629)
T1 construct: whole, on cells; Same receptor on two transfected cell lines; the cell line is named under assay; also called human IL-23R iLite cells; human IL-23R HEK cells
T1 sequence (looked up): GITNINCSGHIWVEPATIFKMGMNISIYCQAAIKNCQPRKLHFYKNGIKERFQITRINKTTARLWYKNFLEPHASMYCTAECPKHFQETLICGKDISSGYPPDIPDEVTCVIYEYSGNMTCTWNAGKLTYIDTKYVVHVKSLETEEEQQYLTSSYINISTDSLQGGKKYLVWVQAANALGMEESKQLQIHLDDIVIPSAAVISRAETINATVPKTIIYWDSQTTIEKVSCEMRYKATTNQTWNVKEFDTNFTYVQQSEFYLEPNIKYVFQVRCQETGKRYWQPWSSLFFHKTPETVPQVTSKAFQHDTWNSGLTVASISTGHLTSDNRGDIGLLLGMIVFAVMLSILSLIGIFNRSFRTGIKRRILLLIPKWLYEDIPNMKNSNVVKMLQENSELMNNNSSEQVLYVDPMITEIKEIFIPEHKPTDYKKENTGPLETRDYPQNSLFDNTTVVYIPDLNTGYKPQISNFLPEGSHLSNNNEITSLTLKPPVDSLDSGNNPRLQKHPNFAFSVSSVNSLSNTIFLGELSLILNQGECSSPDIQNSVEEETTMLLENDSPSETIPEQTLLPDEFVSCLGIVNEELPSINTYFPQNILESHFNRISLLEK
Assay: flow cytometry on human IL-23R HEK cells, Expt D (8-point, 96well)
Experimental: HEK-IL-23R cell concentration response mAb binding (8-point, 96-well assay). […] HEK-IL-23R and HEK-parental cells (12.5 μL of each, 120000 cells total) were plated in 2× replicate on 96-well V-bottom plates (Corning, Cat #3357) into 37° C. warmed Assay medium containing serially diluted IL-23R mAbs to a final volume of 150 μL. IL-23R mAbs were allowed to bind to cells for 30 minutes, at 37° C. […] Cells were next washed twice in ice-cold stain buffer, then resuspended in a final volume of 30 μL with Sytox Green viability dye (ThermoFisher, Cat #S7020). Plates were kept on ice until run for analysis on the iQue. All washes were performed by centrifugation (800 rcf, 3 minutes) followed by flick decantation to remove supernatants. Cell-binding to HEK-IL-23R cells was measured with FlowJo, by gating for single, viable cells and determining the geometric mean fluorescence intensity (MFI) for the 647 detection antibody. Geometric mean fluorescence intensities were plotted over log mAb concentrations fitted with a dose response curve with variable slope using GraphPad Prism.

Binder	EC50 [nM]
B1	30.3
B2	> 50
B3	> 50
B4	0.6
B5	0.8
B6	18.6
B7	> 50
B8	8.7
B9	> 50
B10	9.2
B11	27.6
B12	0.2
B13	31
B14	9.4

Target: T1, human IL-23R expressed on the cell …
Assay: flow cytometry on human IL-23R HEK cells, Expt E (11-point, 384well)
Experimental: HEK-IL-23R cell concentration response mAb binding (11-point, 384-well assay). […] IL-23R mAbs were allowed to bind to cells for 30 minutes, at 37° C. […] Cells were next washed twice in ice-cold stain buffer, then resuspended in a final volume of 10 μL with Sytox Green viability dye (ThermoFisher, Cat #S7020). Plates were kept on ice until run for analysis on the iQue. All washes were performed by centrifugation (800 rcf, 3 minutes) followed by automated aspiration to remove supernatants with plate washers. Cell-binding to HEK-IL-23R cells was measured with FlowJo, by gating for single, viable cells and determining the geometric mean fluorescence intensity (MFI) for the 647 detection antibody. Geometric mean fluorescence intensities were plotted over log mAb concentrations fitted with a dose response curve with variable slope using GraphPad Prism.

Binder	EC50 [nM]	MFI (6.4 nM) [MFI]
B15	18	80900
B16	> 50	86100
B17	35.2	63100
B18	15.8	84200
B19	8.6	258000

Reference: patent US20250179196A1 (Janssen / Centocor, published 2025)
